Source: patent US20220064644A1 (TAIPEI MEDICAL UNIVERSITY, published 2022)

T1: GST-Q43-HTTEX1, P42858
T1 chain: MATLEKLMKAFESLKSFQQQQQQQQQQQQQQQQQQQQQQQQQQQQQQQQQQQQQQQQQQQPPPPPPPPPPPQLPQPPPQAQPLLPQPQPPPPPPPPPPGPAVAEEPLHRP


Assays:
[1] = biological target: ATXN3-28Q (normal ATXN3), P54252
GST-Q43-HTTEX1, P42858 = biological target: T1, GST-Q43-HTTEX1, P42858
[2] = biological target: ATXN3-84Q (mutant ATXN3), P54252
GST protein = biological target: T2, GST protein (UniProt P08515 1-218 = GST); experiment: GST pull-down with purified recombinant proteins, Western blot
T2 construct: Negative control in the pull-down assays
T2 sequence (P08515 whole entry): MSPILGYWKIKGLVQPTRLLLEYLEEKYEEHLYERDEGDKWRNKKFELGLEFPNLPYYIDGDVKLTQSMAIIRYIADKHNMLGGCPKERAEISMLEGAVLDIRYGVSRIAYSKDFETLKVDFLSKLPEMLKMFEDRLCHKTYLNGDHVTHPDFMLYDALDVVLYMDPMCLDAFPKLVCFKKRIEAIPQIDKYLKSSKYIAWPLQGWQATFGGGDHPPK
Method: The indicated lysates (1 mg) were incubated with purified recombinant GST or GST-Q₂₅-HTTEX1 protein as indicated for 60 min at 4° C. to allow complex formation. GST served as a negative control. The protein complexes were analyzed by Western blotting. The amount of PIAS1-domain-deletion mutant was normalized to the corresponding bait (GST-Q₂₅-HTTEX1 protein). The data are presented as the mean±SEM (N=4). **p<0.001 and ****p<0.0001 by one-way ANOVA. (FIG. 12 (C)) Purified recombinant 6×His-S/T rich region only of PIAS1 was incubated with purified recombinant GST or GST-Q₂₅-HTTEX1 protein for 60 min at 4° C. GST served as a negative control. The protein complexes were analyzed by Western blotting. The red arrowhead and yellow arrowhead mark the GST-Q₂₅-HTTEX1 and GST proteins, respectively. The data shown here represent three independent experiments.
GST Pull-down Assay. Cell lysates were harvested using a nondenaturing lysis buffer (137 mM NaCl, 1% NP-40, 20 mM Tris pH 8.0, and 1 mM EDTA) containing a protease inhibitor cocktail and 1× phosphatase inhibitor cocktail (Roche) and subjected to rotation at 4° C. for 1 hr. […] The bound proteins were analyzed with SDS-PAGE and Western blotting. […]

Chain of ATXN3-84Q (mutant ATXN3), P54252 (P54252 whole entry, looked up, stated change not applied, tested part not stated): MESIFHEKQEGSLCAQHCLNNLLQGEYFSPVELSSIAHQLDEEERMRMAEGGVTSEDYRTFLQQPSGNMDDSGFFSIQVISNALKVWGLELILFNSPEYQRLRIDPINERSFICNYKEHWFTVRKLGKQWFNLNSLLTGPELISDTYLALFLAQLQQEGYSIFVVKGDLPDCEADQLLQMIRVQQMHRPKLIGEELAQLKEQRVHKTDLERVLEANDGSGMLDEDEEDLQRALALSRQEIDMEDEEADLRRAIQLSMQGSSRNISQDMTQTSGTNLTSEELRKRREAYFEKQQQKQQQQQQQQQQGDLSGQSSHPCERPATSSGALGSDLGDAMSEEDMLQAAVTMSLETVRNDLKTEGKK
Chain of ATXN3-28Q (normal ATXN3), P54252 (P54252 whole entry, looked up, tested part not stated): as the sequence (P54252 whole entry, looked up, stated change not applied, tested part not stated) above

| binding result (GST protein) | Binder | in vitro SUMOylation assay (SUMO3 conjugation of ATXN3) [1] | in vitro SUMOylation of GST-Q43-HTTEX1 (Western blot shift) (GST-Q43-HTTEX1, P42858) | in vitro SUMOylation assay (SUMO3 conjugation of ATXN3) [2] |
| --- | --- | --- | --- | --- |
|  | wild-type PIAS1 (Homo sapiens protein inhibitor of activated STAT 1) (protein) MADSAELKQMVMSLRVSELQVLLGYAGRNKHGRKHELLTKALHLLKAGCSPAVQMKIKELYRRRFPQKIMTPADLSIPNVHSSPMPATLSPSTIPQLTYDGHPASSPLLPVSLLGPKHELELPHLTSALHPVHPDIKLQKLPFYDLLDELIKPTSLASDNSQRFRETCFAFALTPQQVQQISSSMDISGTKCDFTVQVQLRFCLSETSCPQEDHFPPNLCVKVNTKPCSLPGYLPPTKNGVEPKRPSRPINITSLVRLSTTVPNTIVVSWTAEIGRNYSMAVYLVKQLSSTVLLQRLRAKGIRNPDHSRALIKEKLTADPDSEIATTSLRVSLLCPLGKMRLTIPCRALTCSHLQCFDATLYIQMNEKKPTWVCPVCDKKAPYEHLIIDGLFMEILKYCTDCDEIQFKEDGTWAPMRSKKEVQEVSASYNGVDGCLSSTLEHQVASHHQSSNKNKKVEVIDLTIDSSSDEEEEEPSAKRTCPSLSPTSPLNNKGILSLPHQASPVSRTPSLPAVDTSYINTSLIQDYRHPFHMTPMPYDLQGLDFFPFLSGDNQHYNTSLLAAAAAAVSDDQDLLHSSRFFPYTSSQMFLDQLSAGGSTSLPTTNGSSSGSNSSLVSSNSLRESHSHTVTNRSSTDTASIFGIIPDIISLD | When PIAS1 and ATP (ATP is necessary for SUMOylation activation) participated the reaction process, formed ATXN3 SUMO conjugation (FIG. 6 (B)), both normal and mutant ATXN3 | The addition of PIAS1^WT enhanced the SUMOylation of GST-Q43-HTTEX1 | When PIAS1 and ATP (ATP is necessary for SUMOylation activation) participated the reaction process, formed ATXN3 SUMO conjugation (FIG. 6 (B)), both normal and mutant ATXN3 |
|  | PIAS1 gene variant 3 (PIAS1^S510G) (protein) MADSAELKQMVMSLRVSELQVLLGYAGRNKHGRKHELLTKALHLLKAGCSPAVQMKIKELYRRRFPQKIMTPADLSIPNVHSSPMPATLSPSTIPQLTYDGHPASSPLLPVSLLGPKHELELPHLTSALHPVHPDIKLQKLPFYDLLDELIKPTSLASDNSQRFRETCFAFALTPQQVQQISSSMDISGTKCDFTVQVQLRFCLSETSCPQEDHFPPNLCVKVNTKPCSLPGYLPPTKNGVEPKRPSRPINITSLVRLSTTVPNTIVVSWTAEIGRNYSMAVYLVKQLSSTVLLQRLRAKGIRNPDHSRALIKEKLTADPDSEIATTSLRVSLLCPLGKMRLTIPCRALTCSHLQCFDATLYIQMNEKKPTWVCPVCDKKAPYEHLIIDGLFMEILKYCTDCDEIQFKEDGTWAPMRSKKEVQEVSASYNGVDGCLSSTLEHQVASHHQSSNKNKKVEVIDLTIDSSSDEEEEEPSAKRTCPSLSPTSPLNNKGILSLPHQASPVSRTPGLPAVDTSYINTSLIQDYRHPFHMTPMPYDLQGLDFFPFLSGDNQHYNTSLLAAAAAAVSDDQDLLHSSRFFPYTSSQMFLDQLSAGGSTSLPTTNGSSSGSNSSLVSSNSLRESHSHTVTNRSSTDTASIFGIIPDIISLD |  | Compared with PIAS1^WT, PIAS1^S510G induced a much lower level of SUMOylation of GST-Q43HTTEX1 |  |
| no binding | 6xHis-S/T rich region only of PIAS1 (other, human, UniProt O75925 480-651, looked up, domain: S/T rich region; Purified recombinant protein from BL21 cells; also called S/T only; S/T-only PIAS1; not shown: 6xHis tag from the pRSETA-6xHis vector) TCPSLSPTSPLNNKGILSLPHQASPVSRTPSLPAVDTSYINTSLIQDYRHPFHMTPMPYDLQGLDFFPFLSGDNQHYNTSLLAAAAAAVSDDQDLLHSSRFFPYTSSQMFLDQLSAGGSTSLPTTNGSSSGSNSSLVSSNSLRESHSHTVTNRSSTDTASIFGIIPDIISLD |  |  |  |
